In US20220333124:
Residue numbers refer to the chain shown, from its start.

Columns and labels:
[1] = test system: T1, Pb2Cpf1 (Prevotella bryantii B14); experiment: cell_activity; conditions: pea protoplasts, NGS; PAM TTTC per claims
T1 sequence: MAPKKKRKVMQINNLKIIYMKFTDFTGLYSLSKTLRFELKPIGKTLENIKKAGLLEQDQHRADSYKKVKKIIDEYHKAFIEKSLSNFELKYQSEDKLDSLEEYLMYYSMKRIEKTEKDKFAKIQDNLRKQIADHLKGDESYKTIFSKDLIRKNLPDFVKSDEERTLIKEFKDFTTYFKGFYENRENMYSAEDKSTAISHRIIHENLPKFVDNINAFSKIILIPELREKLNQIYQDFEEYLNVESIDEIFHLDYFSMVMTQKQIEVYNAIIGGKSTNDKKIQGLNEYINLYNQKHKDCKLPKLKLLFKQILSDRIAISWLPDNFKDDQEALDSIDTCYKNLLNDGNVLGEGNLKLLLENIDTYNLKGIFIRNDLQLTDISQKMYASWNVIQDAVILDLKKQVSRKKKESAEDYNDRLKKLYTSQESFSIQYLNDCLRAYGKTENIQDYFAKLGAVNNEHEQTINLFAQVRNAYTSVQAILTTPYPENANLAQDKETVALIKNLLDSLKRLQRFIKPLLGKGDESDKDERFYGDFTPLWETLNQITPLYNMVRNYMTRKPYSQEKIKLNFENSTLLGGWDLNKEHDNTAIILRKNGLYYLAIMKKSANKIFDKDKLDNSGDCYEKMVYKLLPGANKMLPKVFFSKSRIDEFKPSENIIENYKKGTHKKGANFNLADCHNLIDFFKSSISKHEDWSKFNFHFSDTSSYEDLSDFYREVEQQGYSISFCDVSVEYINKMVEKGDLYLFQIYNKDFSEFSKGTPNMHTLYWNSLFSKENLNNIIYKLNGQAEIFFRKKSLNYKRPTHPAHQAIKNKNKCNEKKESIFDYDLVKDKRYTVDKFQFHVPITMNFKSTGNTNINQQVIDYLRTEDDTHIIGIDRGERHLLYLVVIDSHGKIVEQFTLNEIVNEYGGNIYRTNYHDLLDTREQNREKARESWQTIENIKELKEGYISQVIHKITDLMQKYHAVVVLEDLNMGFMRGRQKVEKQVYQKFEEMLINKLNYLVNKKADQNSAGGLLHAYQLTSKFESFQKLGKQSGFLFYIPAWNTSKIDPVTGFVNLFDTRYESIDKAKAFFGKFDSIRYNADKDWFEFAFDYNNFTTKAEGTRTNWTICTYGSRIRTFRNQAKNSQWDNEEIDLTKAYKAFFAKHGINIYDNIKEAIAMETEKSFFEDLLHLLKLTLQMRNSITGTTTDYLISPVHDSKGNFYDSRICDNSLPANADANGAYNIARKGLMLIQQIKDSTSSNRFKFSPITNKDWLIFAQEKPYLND

[2] = test system: T2, Pb2Cpf1 E173R (Prevotella bryantii B14); experiment: cell_activity; conditions: pea protoplasts, NGS; PAM TTTC per claims
T2 sequence: T1 sequence with E182R

PsLOX2 guide RNA (plasmid 133806, MtU6 promoter; plasmid sequence given) ; PsLOX2 genomic target
activity [1]: 0.32 % editing
activity [2]: 0.88 % editing
